According to the supplement of paper PMC9170038:

Legend:
MS2 coat protein [1] = assay: apparent KD of MS2 coat protein, switch OFF state (with FMN for OFF switches, without FMN for ON switches); designed switch direction (-1 OFF switch, 1 ON switch): 1; higher = weaker reporter binding; conditions: FMN input: 0 or 200 uM; Eterna round: R93 (includes R88 designs)
Summary of the method: (§1)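 For every design, apparent KD is the median of normalised binding-curve fits from its clusters. The RNA switches were transcribed on-chip from Illumina sequencing clusters and titrated with SNAP-549-labelled MS2 coat protein (twofold steps, 0.7 or 1.5 nM to 3 µM; 0.8–1.5 h to 10–20 min per step). Titrations used 100 mM Tris-HCl pH 7.5, 80 mM KCl, 4 mM MgCl2, without or with constant ligand.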

MS2 coat protein [2] = assay: apparent KD of MS2 coat protein, switch ON state; designed switch direction (-1 OFF switch, 1 ON switch): 1; higher = weaker reporter binding; conditions: FMN input: 0 or 200 uM; Eterna round: R93 (includes R88 designs)
Summary of the method: as §1

Sequence	apparent KD of MS2 coat protein (MS2 coat protein [1])	apparent KD of MS2 coat protein (MS2 coat protein [2])
AACAUACAUGAGGAUCACCCAUGUUUAUAAAAACAAGGAUAUAUAAGAACAAACAAACAAAUAGAAGGUGUAAAAA [Default title]	17.2 nM	23.4 nM
ACUACACAUGAGGAUCACCCAUGUCAGGCCGGACUAGGAUAUUAUAAACCAGAGUAAAAAUAAGAAGGAGUAGGAA [JR_SS001_Sub310]	61.3 nM	39.2 nM
AACUAACAUGAGGAUCACCCAUGUAUUCAAACAUGAGGAUAUAUAACACAUCAUCGACAGAUAGAAGGCAUAAAUA [JR_SS001_Sub1205]	78.5 nM	89.6 nM
CGAAGACAUGAGGAUCACCCAUGUGGGAAUAUGGGAGGAUAUACAAAGACGAGAGUCAGAGUAGAAGGCCUAGGAA [salish99-ss1-104]	56.6 nM	23.3 nM
GGUACAUCUAGUUAGGAUAUCAGAUGUAAGACAUGAGGAUCACCCAUGUCCUAAGAAUAGGUAACUGAGAAGGAACAGGGAGUCC [JR_SS002_Sub417]	29.8 nM	36.5 nM
AAGUCACAUGAGGAUCACCCAUGUCGUAAACGAUGAGGAUAUAGGAACGAAAGAAAAAAACUAGAAGGUAUAACAA [SameState1-03]	26.7 nM	28.8 nM
AAAGACGUGGUGUAGGAUAUACUAAUAGUCACAUGAGGAUCACCCAUGUUCAUAUAUAUGAACGAGUAGAAGGACGACGAAAAAA [SameState2 Malc#2]	95.8 nM	70.4 nM
GAAAAACAUGAGGAUCACCCAUGUAGAAAUAUGGGAGGAUAUACGAAGUCGAAAGUCAAAGUAGAAGGCCUAAAAG [Garnet 28]	108 nM	31.3 nM
AAAUGACAUGAGGAUCACCCAUGUCCACCAAACGGAGGAUAUUGGGCGGCAAAACGUUGUUAAGAAGGCCGAAAAA [SS1-1.1]	28 nM	60 nM
GAAAAACAUGAGGAUCACCCAUGUGAAAAUAUGGAAGGAUAUACAAAGACGAAAGUCAAAGUAGAAGGUCUAAAAG [Mat - Same State 1 - Eli mod - D14]	22.5 nM	15 nM
GCAAAACAUGAGGAUCACCCAUGUGAAAAGAAUGUAGGAUAUGGGCUCAUAAAUAGCAGCCCAGAAGGGCGAAGAA [Onmace]	26.2 nM	29.6 nM
AAAGACACGGUGCAGGAUAUAUUAAUAGUCACAUGAGGAUCACCCAUGUUCAUUUAUAUGAACGAGUAGAAGGGCGGUGAAAAAA [SameState2 Malc#8]	110 nM	174 nM
GAAAAACAUGAGGAUCACCCAUGUGAAAAUAUGGGAGGAUAUACAAGGACGAAAGUCAAGGUAGAAGGCCUAAAAG [Mat - Same State 1 - Eli mod - 27]	78.8 nM	39.4 nM
AGGAGACAUGAGGAUCACCCAUGUGCACGUGGAGGAGGAUAUGCUAGUAGAAGAUAGAAUGCAGAAGGCCUAAGAA [JR_SameState1_Sub3]	35.3 nM	42.8 nM
AAUAAACAUGAGGAUCACCCAUGUAGAAACAUGGGAGGAUAUACAAAGACGAAAGUCAAAGUAGAAGGCCUAAAAA [Mat - Same State 1 - Mod - D168]	329 nM	150 nM
AAAGACAUAGUGCAGGAUAUGGUAAUAGUCACAUGAGGAUCACCCAUGUUCUUUUAUAAGAACGAUCAGAAGGGCGGUAAAAAAA [SameState2 Malc#13]	666 nM	359 nM
UGGAGACAUGAGGAUCACCCAUGUGAGAAGAGGCGAGGAUAUCGAAAGAAAGAAGAGAAACGAGAAGGCGCGAGAA [salish99-SS1-033]	36.7 nM	13 nM

Sequence	apparent KD of MS2 coat protein (MS2 coat protein [1])	apparent KD of MS2 coat protein (MS2 coat protein [2])
AAUAAACAUGAGGAUCACCCAUGUAAAUGGGCGAUAGGAUAUGCGAAAAUAAAGAAAGAAGCAGAAGGAUCGAAGA [Ex5 sub 3]	51.9 nM	224 nM
AUAUAUAUAAGGUAGGAUAUCCUAAAGUAAACAUGAGGAUCACCCAUGUAAAGAAAGAAACUCAUGGAGAAGGACCAUAUAUAUA	20.2 nM	15.5 nM
UGGAGACAUGAGGAUCACCCAUGUGAGAAGAGGCGAGGAUAUCGAAAGAAAGAAGAGAAACGAGAAGGCGCGAGUC [salish99-SS1-046]	41 nM	28.3 nM
AAAAAACAUGAGGAUCACCCAUGUAAAAAAAACACAGGAUAUCCAAAAAAAAAAAAAAAAGGAGAAGGGUGAAAAA [Nob - Jieux - Same State 1]	48.3 nM	22 nM
AGCACGCGAUUGGAGGAUAUGUUGUUUGCAACAUGAGGAUCACCCAUGUCUGAGGCUGAAAAGCAGCAGAAGGCCGAUACAACCA [SS2-1.1]	113 nM	30.6 nM
GGAAGACAUGAGGAUCACCCAUGUGGGAAUAUGGGAGGAUAUACAAAGACGAGAGUCAGAGUAGAAGGCCUAGGCC [salish99-ss1-103(!)]	126 nM	54.3 nM
AAAAAACAUGAGGAUCACCCAUGUGAGAACAAGGGAGGAUAUACGAAGACGAAAGUCGAAGUAGAAGGCCUAAAAA [Garnet 81]	46.6 nM	23.3 nM
GCGGUGUAGGUACAGGAUAUGUUGCUCGUAACAUGAGGAUCACCCAUGUACCUAUGAGAUUAAAUGCAGAAGGGUGCACACCACG [Zaalaes]	2.41 nM	21.5 nM
AAAAUAAAAUAAAAGGAUAUAAAGAUAUAUACAUGAGGAUCACCCAUGUAUAUAUCAAUAAAAUAAAAGAAGGAAUAAAAAUAAA [SS2 510: MS2 10]	18 nM	14.8 nM
UGUAGGAAGAGAGAGGAUAUCCAAAGGAAAACAUGAGGAUCACCCAUGUAAAAGGUAGGAAAUUGGGAGAAGGCUCAAGAGAGAG [salish99-ss2-082]	52.7 nM	29 nM
CGGAAGGAGAGAGAGGAUAUCCAAAGGAAAACAUGAGGAUCACCCAUGUAGAAGGUAGGAAAUUGGGAGAAGGCUCAACAGAGAG [salish99-ss2-130]	33.4 nM	19.1 nM
AAAAAACAUGAGGAUCACCCAUGUCUUCGGACGUGAGGAUAUGUACAGACUUCGGUCUGUACAGAAGGCAUGAAAA [SS1 - 1058]	381 nM	176 nM
AAAAGACAUGAGGAUCACCCAUGUAAAAACAUAGGAGGAUAUGUCUGGAAACCAGACUGGACAGAAGGCCUUUGUC [SS1 - 63]	29.4 nM	24.8 nM
AGAAAUAAAAGAGAGGAUAUCCAAAAGAAAACAUGAGGAUCACCCAUGUAAAAGAAAAUAAAAUGGGAGAAGGCUCAUAUUAAAG [JL Skelter 2 mod 3]	146 nM	44.9 nM
GAUCCAACUAGUCAGGAUAUCAGGCGUAAGACAUGAGGAUCACCCAUGUCCUAAGAACAAGUAACUGAGAAGGGACAGGGCGACC [JR_SS002_Sub412]	74.3 nM	70.5 nM
GAAAAACAUGAGGAUCACCCAUGUAGAAAUAUGGGAGGAUAUACAAAGACGAAAGUCAAAGUAGAAGGCCUAAAAG [Mat - Same State 1 - Rerun of Eli mod - D1]	69.3 nM	23.9 nM
